One molecule from paper doi:10.1101/2020.12.03.409995 (2020) can be followed below.

In test [1] the target is T1, Biotin-Aβ42 oligomers (human, UniProt P05067 672-713, biotin (position not given)). As to the kind of experiment: BLI; koff1 (first site).
Test [2] deals with T1, Biotin-Aβ42 oligomers. Description: BLI; koff2 (second site).

B1: wild-type sTREM2 (TREM2 ectodomain, residues 19-143, His-tagged) (domain or fragment)
chain: HNTTVFQGVAGQSLQVSCPYDSMKHWGRRKAWCRQLGEKGPCQRVVSTHNLWLLSFLRRWNGSTAITDDTLGGTLTITLRNLQPHDAGLYQCQSLHGSEADTLRKVLVEVLADPLDHRDAGDLWF
Take B1: the values for the koff with Biotin-Aβ42 oligomers [1] and with Biotin-Aβ42 oligomers [2] were 0.435 s⁻¹ and 0.00772 s⁻¹, respectively.
